For series [1], the target named is T1, Rec114(388-428) K417A/K424A;Mei4N K417A;K424A (Saccharomyces cerevisiae;Saccharomyces cerevisiae) (UniProt P32841+P29467).
T1 sequence 1: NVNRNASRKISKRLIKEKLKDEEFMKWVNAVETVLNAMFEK
T1 sequence 2: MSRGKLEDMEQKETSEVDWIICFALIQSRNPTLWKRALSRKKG
Briefly: EMSA. Particulars: EMSA: 25 mM Tris-HCl pH 7.4, 100 mM NaCl, 5 ng DNA, 20 min, room temperature; AFM: 25 mM HEPES-NaOH pH 7.4, 5 mM MgCl2, 50 mM NaCl, 10% glycerol, 30 min, RT …. For orientation: In EMSA bound probe runs differently from free probe, usually more slowly.

Series [2] addresses T2, Rec114C;Mei4N-ybbR (Saccharomyces cerevisiae;Saccharomyces cerevisiae) (UniProt P32841+P29467).
T2 sequence 1: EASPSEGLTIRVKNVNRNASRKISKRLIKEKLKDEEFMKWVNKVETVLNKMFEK
T2 sequence 2: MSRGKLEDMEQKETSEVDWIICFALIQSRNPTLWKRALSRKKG
Briefly: EMSA. The note with it: EMSA: 25 mM Tris-HCl pH 7.4, 100 mM NaCl, 5 ng DNA, 20 min, room temperature; AFM: 25 mM HEPES-NaOH pH 7.4, 5 mM MgCl2, 50 mM NaCl, 10% glycerol, 30 min, RT ….

Series [3] addresses T3, Rec114(388-428) K399A/R400A;Mei4N K399A;R400A (Saccharomyces cerevisiae;Saccharomyces cerevisiae) (UniProt P32841+P29467).
T3 sequence 1: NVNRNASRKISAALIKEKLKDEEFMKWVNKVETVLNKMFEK
T3 sequence 2: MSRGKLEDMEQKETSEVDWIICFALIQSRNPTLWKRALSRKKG
The series is described as follows: EMSA. The note with it: EMSA: 25 mM Tris-HCl pH 7.4, 100 mM NaCl, 5 ng DNA, 20 min, room temperature; AFM: 25 mM HEPES-NaOH pH 7.4, 5 mM MgCl2, 50 mM NaCl, 10% glycerol, 30 min, RT ….

The target of series [4] is T4, Rec114C;Mei4N-ybbR-LD650 (Saccharomyces cerevisiae;Saccharomyces cerevisiae) (UniProt P32841+P29467).
T4 sequence 1: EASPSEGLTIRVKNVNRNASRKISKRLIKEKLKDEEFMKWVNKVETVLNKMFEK
T4 sequence 2: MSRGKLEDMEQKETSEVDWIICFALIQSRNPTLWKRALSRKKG
Briefly: EMSA. Particulars: EMSA: 25 mM Tris-HCl pH 7.4, 100 mM NaCl, 5 ng DNA, 20 min, room temperature; AFM: 25 mM HEPES-NaOH pH 7.4, 5 mM MgCl2, 50 mM NaCl, 10% glycerol, 30 min, RT ….

Series [5] deals with T5, Rec114(388-428) K403A/K407A;Mei4N K403A;K407A (Saccharomyces cerevisiae;Saccharomyces cerevisiae) (UniProt P32841+P29467).
T5 sequence 1: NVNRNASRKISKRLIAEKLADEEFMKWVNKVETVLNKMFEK
T5 sequence 2: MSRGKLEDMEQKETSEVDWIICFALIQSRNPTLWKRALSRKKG
Briefly: EMSA. The note with it: EMSA: 25 mM Tris-HCl pH 7.4, 100 mM NaCl, 5 ng DNA, 20 min, room temperature; AFM: 25 mM HEPES-NaOH pH 7.4, 5 mM MgCl2, 50 mM NaCl, 10% glycerol, 30 min, RT ….

The target in series [6] is T6, mREC114C;mMEI4N (Mus musculus;Mus musculus) (UniProt Q9CWH4+Q8BRM6).
T6 sequence 1: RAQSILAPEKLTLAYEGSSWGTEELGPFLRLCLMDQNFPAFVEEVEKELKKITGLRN
T6 sequence 2: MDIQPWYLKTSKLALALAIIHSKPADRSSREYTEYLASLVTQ
The series is described as follows: EMSA. The note with it: EMSA: 25 mM Tris-HCl pH 7.4, 100 mM NaCl, 5 ng DNA, 20 min, room temperature; AFM: 25 mM HEPES-NaOH pH 7.4, 5 mM MgCl2, 50 mM NaCl, 10% glycerol, 30 min, RT ….

Series [7] has as its target T7, Rec114(388-428);Mei4(13-43) (Saccharomyces cerevisiae;Saccharomyces cerevisiae) (UniProt P32841+P29467).
T7 sequence 1: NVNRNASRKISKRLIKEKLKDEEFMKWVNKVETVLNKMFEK
T7 sequence 2: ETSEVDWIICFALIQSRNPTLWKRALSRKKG
The series is described as follows: EMSA. The note with it: EMSA: 25 mM Tris-HCl pH 7.4, 100 mM NaCl, 5 ng DNA, 20 min, room temperature; AFM: 25 mM HEPES-NaOH pH 7.4, 5 mM MgCl2, 50 mM NaCl, 10% glycerol, 30 min, RT ….

Series [8] has as its target T8, Rec114C;Mei4N (Saccharomyces cerevisiae;Saccharomyces cerevisiae) (UniProt P32841+P29467).
T8 sequence 1: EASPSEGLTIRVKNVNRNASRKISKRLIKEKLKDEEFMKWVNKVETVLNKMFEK
T8 sequence 2: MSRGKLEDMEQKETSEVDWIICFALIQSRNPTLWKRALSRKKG
The series is described as follows: EMSA. Particulars: EMSA: 25 mM Tris-HCl pH 7.4, 100 mM NaCl, 5 ng DNA, 20 min, room temperature; AFM: 25 mM HEPES-NaOH pH 7.4, 5 mM MgCl2, 50 mM NaCl, 10% glycerol, 30 min, RT ….

Series [9] addresses T9, Rec114(388-428) R395A/K396A;Mei4N R395A;K396A (Saccharomyces cerevisiae;Saccharomyces cerevisiae) (UniProt P32841+P29467).
T9 sequence 1: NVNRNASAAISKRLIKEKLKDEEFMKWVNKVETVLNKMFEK
T9 sequence 2: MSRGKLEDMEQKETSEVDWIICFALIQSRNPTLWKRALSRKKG
Briefly: EMSA. The note with it: EMSA: 25 mM Tris-HCl pH 7.4, 100 mM NaCl, 5 ng DNA, 20 min, room temperature; AFM: 25 mM HEPES-NaOH pH 7.4, 5 mM MgCl2, 50 mM NaCl, 10% glycerol, 30 min, RT ….

Series [10] deals with T10, Rec114(325-428);Mei4(1-90) (Saccharomyces cerevisiae;Saccharomyces cerevisiae) (UniProt P32841+P29467).
T10 sequence 1: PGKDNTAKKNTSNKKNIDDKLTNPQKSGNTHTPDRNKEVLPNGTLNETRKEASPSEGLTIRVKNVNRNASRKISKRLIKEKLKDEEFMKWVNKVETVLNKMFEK
T10 sequence 2: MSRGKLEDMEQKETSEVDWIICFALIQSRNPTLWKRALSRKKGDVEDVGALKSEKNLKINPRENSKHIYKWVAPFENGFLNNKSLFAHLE
The series is described as follows: EMSA. The note with it: EMSA: 25 mM Tris-HCl pH 7.4, 100 mM NaCl, 5 ng DNA, 20 min, room temperature; AFM: 25 mM HEPES-NaOH pH 7.4, 5 mM MgCl2, 50 mM NaCl, 10% glycerol, 30 min, RT ….

Series [11] addresses T11, Rec114(388-428);Mei4N (Saccharomyces cerevisiae;Saccharomyces cerevisiae) (UniProt P32841+P29467).
T11 sequence 1: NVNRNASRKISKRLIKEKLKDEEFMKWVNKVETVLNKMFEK
T11 sequence 2: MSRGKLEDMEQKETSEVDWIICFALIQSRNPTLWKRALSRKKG
The series is described as follows: EMSA. The note with it: EMSA: 25 mM Tris-HCl pH 7.4, 100 mM NaCl, 5 ng DNA, 20 min, room temperature; AFM: 25 mM HEPES-NaOH pH 7.4, 5 mM MgCl2, 50 mM NaCl, 10% glycerol, 30 min, RT ….

For series [12], the target named is T12, Rec114(386-428);Mei4N (Saccharomyces cerevisiae;Saccharomyces cerevisiae) (UniProt P32841+P29467).
T12 sequence 1: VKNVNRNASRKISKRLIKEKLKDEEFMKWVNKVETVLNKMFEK
T12 sequence 2: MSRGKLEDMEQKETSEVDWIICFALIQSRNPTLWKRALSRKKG
The series is described as follows: EMSA. Particulars: EMSA: 25 mM Tris-HCl pH 7.4, 100 mM NaCl, 5 ng DNA, 20 min, room temperature; AFM: 25 mM HEPES-NaOH pH 7.4, 5 mM MgCl2, 50 mM NaCl, 10% glycerol, 30 min, RT ….

In series [13] the target is T13, Rec114C;Mei4N (Saccharomyces cerevisiae;Saccharomyces …, UniProt P32841;P29467 375-428;1-43, |).
T13 sequence 1: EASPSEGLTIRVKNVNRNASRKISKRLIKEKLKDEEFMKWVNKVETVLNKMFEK
T13 sequence 2: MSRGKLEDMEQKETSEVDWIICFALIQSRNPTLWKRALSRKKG
The series is described as follows: EMSA; C50; EMSA: 25 mM Tris-HCl pH 7.4, 100 mM NaCl, 5 ng DNA, 20 min, room temperature; AFM: 25 mM HEPES-NaOH pH 7.4, 5 mM MgCl2, 50 mM NaCl, 10% glycerol, 30 min, RT; optical trap: same buffer plus 5 nM SYTOX Orange, RT. Particulars: protein: recombinant;recombinant; tags: 6xHis-SUMO removed by Ulp1 (tagged chain);6xHis-SUMO removed by Ulp1 when on this chain; chain copies: 2;1; blunt.

Series [14] has as its target T13, Rec114C;Mei4N. The series is described as follows: EMSA; C50; main text gives ~800 nM; EMSA: 25 mM Tris-HCl pH 7.4, 100 mM NaCl, 5 ng DNA, 20 min, room temperature; AFM: 25 mM HEPES-NaOH pH 7.4, 5 mM MgCl2, 50 mM NaCl, 10% glycerol, 30 min, RT; optical trap: same buffer plus 5 nM SYTOX Orange, RT. The note with it: protein: recombinant;recombinant; tags: 6xHis-SUMO removed by Ulp1 (tagged chain);6xHis-SUMO removed by Ulp1 when on this chain; chain copies: 2;1; blunt.

These results are taken from article PMC10393192, “Structure and DNA-bridging activity of the essential Rec114–Mei4 trimer interface”.

Regarding “ATCTGGCTCGCCTGACGGGATGCGACGAATTTTCGCCGCCCCATAAAGTACGCCCACGACTCGTTCGCACTGGCCCGTGCCGTGGAGTAGCTCATCTGGGCGTAATTCCGGGAAAGCTGCTCATACGAGACACCCAGCCCGGCAGCGATAT (double strand) [150-bp DNA]”, the K half in [1] is 900 nM; in [2], 90 nM; in [3], 2000 nM; in series [4] it was 90 nM; in [5], 1000 nM; in series [7], 100 nM. Besides, the K half in series [8] came out at 90 nM; in series [9] it was 1000 nM; in [10], 90 nM; in [11], 110 nM; in [12] it was 110 nM. In series [6], the binding result is “binds more weakly”.

B1: dsDNA80 (dsDNA)
DNA 1: CTAGTATAGAGCCGGCGCGCCATGTCTAGATAGCGTTAGGTCTGCCGAATAGTACTACTCGGATCCCGAGCGAACCACGC
DNA 2: GCGTGGTTCGCTCGGGATCCGAGTAGTACTATTCGGCAGACCTAACGCTATCTAGACATGGCGCGCCGGCTCTATACTAG
Turning to B1, the “apparent K (half saturation)” value in the series with Rec114C;Mei4N [13] was determined as 100 ± 20 nM.

B2: dsDNA20 (dsDNA)
DNA 1: AAAGATGTCCTAGCAATGTA
DNA 2: TACATTGCTAGGACATCTTT
On to B2, for which the “apparent K (half saturation)” value with Rec114C;Mei4N [14] is 600 ± 100 nM.
